Test results published in paper PMC11008599.

Tests used:
[1] = biological target: K8-K57, BECN1 frameworks (bovine (knob domain)); assay: SPR; multicycle kinetics, Biacore 8K+; knob domain constructs immobilised on a CM5 chip via amine coupling, C5 in solution; HBS-EP+ (10 mM HEPES pH 7.4, 150 mM NaCl, 3 mM EDTA, 0.005% P20); 1:1 binding model
[2] = biological target: aIL2_1-K8 (G4P linker), BECN1 frameworks (bovine (knob domain)); assay: as above
[3] = biological target: K8-K57, SNV-N frameworks (bovine (knob domain)); assay: SPR; […], Biacore 8K+; […]; HBS-EP+ (10 mM HEPES pH 7.4, 150 mM NaCl, 3 mM EDTA, 0.005% P20); 1:1 binding model
[4] = biological target: aIL2_1-K8 (G4P linker), SNV-N frameworks (bovine (knob domain)); assay: as above
[5] = biological target: bispecific/bivalent aIL2_1-aIL2_1-K8 fusion, SNV-N stalks, GGGGP linkers; assay: SPR; bridging SPR assay: immobilised C5, binding cycles of the knob domain fusions, then a binding cycle of IL-2
[6] = biological target: aIL2_1-aIL2_1-K8, BECN1 frameworks (bovine (knob domain)); assay: SPR; multicycle kinetics, Biacore 8K+; knob domain constructs immobilised on a CM5 chip via amine coupling, IL-2 in solution; HBS-EP+; two-state binding model, only the fastest association and the slowest dissociation rate constants reported
[7] = biological target: aIL2_1-aIL2_1, BECN1 frameworks (bovine (knob domain)); assay: as above
[8] = biological target: aIL2_1-K8 (G4P linker), BECN1 frameworks (bovine (knob domain)); assay: as above
[9] = biological target: aIL2_1-K8 (G4P linker), SNV-N frameworks (bovine (knob domain)); assay: SPR; […], Biacore 8K+; […]; HBS-EP+; […]
[10] = biological target: aIL2_1-aIL2_1-K8, SNV-N frameworks (bovine (knob domain)); assay: SPR; […], Biacore 8K+; […]; HBS-EP+; […]
[11] = biological target: aIL2_1-aIL2_1, SNV-N frameworks (bovine (knob domain)); assay: SPR; […], Biacore 8K+; […]; HBS-EP+; […]

Chain of human IL-2 (P60568 21-153): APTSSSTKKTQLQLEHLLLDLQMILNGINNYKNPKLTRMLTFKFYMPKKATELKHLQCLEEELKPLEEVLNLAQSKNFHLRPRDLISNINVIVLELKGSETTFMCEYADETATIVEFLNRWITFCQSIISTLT
Chain of aIL2_1-K8 (G4P linker), BECN1 frameworks (bovine (knob domain)) (main, as listed by the source): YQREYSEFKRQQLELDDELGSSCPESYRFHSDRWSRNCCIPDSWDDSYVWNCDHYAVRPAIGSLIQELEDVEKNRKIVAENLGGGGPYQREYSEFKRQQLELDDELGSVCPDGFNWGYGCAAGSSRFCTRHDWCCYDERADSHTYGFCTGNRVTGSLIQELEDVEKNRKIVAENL
Chain of aIL2_1-aIL2_1, BECN1 frameworks (bovine (knob domain)) (main, as listed by the source): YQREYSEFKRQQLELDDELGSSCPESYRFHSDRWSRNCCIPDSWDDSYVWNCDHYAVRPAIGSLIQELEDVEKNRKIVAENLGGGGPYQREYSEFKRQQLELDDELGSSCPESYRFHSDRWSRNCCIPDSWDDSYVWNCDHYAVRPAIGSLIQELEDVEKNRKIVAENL
Chain of aIL2_1-aIL2_1-K8, BECN1 frameworks (bovine (knob domain)) (main, as listed by the source): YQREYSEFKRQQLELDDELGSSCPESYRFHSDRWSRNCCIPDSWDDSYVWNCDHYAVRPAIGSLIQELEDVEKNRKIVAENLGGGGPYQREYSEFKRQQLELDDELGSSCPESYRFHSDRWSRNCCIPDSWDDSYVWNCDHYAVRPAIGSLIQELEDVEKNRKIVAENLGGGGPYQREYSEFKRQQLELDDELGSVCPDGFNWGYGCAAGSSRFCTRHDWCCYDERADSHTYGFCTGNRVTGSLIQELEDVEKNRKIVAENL

Substance | Kd [1] [nM] | koff [1] [s⁻¹] | kon [1] [M⁻¹ s⁻¹] | Kd [2] [nM] | koff [2] [s⁻¹] | kon [2] [M⁻¹ s⁻¹] | Kd [3] [nM] | koff [3] [s⁻¹] | kon [3] [M⁻¹ s⁻¹] | Kd [4] [nM] | koff [4] [s⁻¹] | kon [4] [M⁻¹ s⁻¹] | increase in signal upon IL-2 binding [5] [RU] | Kd [6] [nM] | Kd [7] [nM] | Kd [8] [nM] | Kd [9] [nM] | Kd [10] [nM] | Kd [11] [nM]
complement component 5 (natural protein) | 0.9 | 2.8e-05 | 31000 | 29 | 0.00026 | 8800 | 1.18 | 1.83e-05 | 15400 | 26 | 0.00025 | 9700 |  |  |  |  |  |  | 
human IL-2 (from UniProt P60568 21-153) (natural protein) |  |  |  |  |  |  |  |  |  |  |  |  | 26 | 7.1 | 7.5 | 10 | 9 | 5.5 | 5.7
